Data taken from the DeepSol protein solubility set.

Assay: soluble on expression in E. coli; label from the status in PepcDB or PDB records

## MRIEAAELRILELPLKFRFETSFGVQTKRTILLLRLFGEGLEGLGEGVMERLPLYREETVAGARYLLEEVFLPRVLGRDLPNPEALREALAPFRGNPMAKAVLEMAFFDLWAKALGRPLWQVLGGVRQAVEVGVSLGIQPSVEDTLRVVERHLEEGYRRIKLKIKPGWDYEVLKAVREAFPEATLTADANSAYSLANLAQLKRLDELRLDYIEQPLAYDDLLDHAKLQRELSTPICLDESLTGAEKARKAIELGAGRVFNVKPARLGGHGESLRVHALAESAGIPLWMGGMLEAGVGRAHNLHLATLPGFTKPGDVSSASRYWEEDIVEEALEAKDGLMPVPEGVGIGVHLKLPFVERVTLWQRYMSAS
  soluble on expression in E. coli: soluble

## MIPTERRQIILDMVAEKGIVSIAELTERMHVSHMTIRRDLQKLEQQGAVIQVSGGVQSSTRVAHEPSHQIKTELATPQKAAIGKLAASLVQPESCIYLDAGTTTLAIARQLVTMNKLTVVTNDFVIADYLMDNSNCTIIHTGGAVCRENRSCVGEAAATLLRGLMIDQAFISASSWSVRGISTPAEDKVTVKRAVASASRQKILVCDATKYGQVATWLALPLAEFNQIVTDDGLPESAIRALAKVDISLLMAKQLEHHHHHH
  soluble on expression in E. coli: soluble

## GMSTAAESEIRQLIERWMQAVRDRDIPGIIAPYADDIVAFDAIQALQFKGKSAYTAHWEMCMGMCTGPMVFELAQLTVHAAGDLALAHWLNRCGPGDDESQCGFMRATVGYRRQGGQWQVIHEHWSAPFDMETQKALFDLKP
  soluble on expression in E. coli: soluble

## MRALGQNPTNAEVLKVLGNPKSDEMNVKVLDFEHFLPMLQTVAKNKDQGTYEDYVEGLRVFDKEGNGTVMGAEIRHVLVTLGEKMTEEEVEMLVAGHEDSNGCINYEELVRMVLNG
  soluble on expression in E. coli: soluble

## MKPLRSPWVMRALARFFSGYIALTYKTLRWTREGQAIADRVQAEALASGGGAILALWHSRVPVGPATWPQGPDKPEIRVLVSQSRDGEFIARVIARLGLPSIRGSSLKKTDTAKNKGGEQAFRDMVKWVKDGGAMAITPDGPRGPVEVMQKGAVALARVSGAPVLFVGVAVNPCIRLKTWDRTIIPLPFAKAAMVWDGPVHAGRDDDPDAVVEAWGARLSAVSRRAEAIVGETPPKDLEHHHHHH
  soluble on expression in E. coli: not soluble

## MGSDKIHHHHHHMSHTITVIGLGAGDLEQLPLGVYRLILNQDHLYVRTKDHPVIEELIGEGHSFTFFDSIYEQHETFEAVYDAIVAELLEAAKSKEILYAVPGHPLVAERTVQLLLEAEREGRVTVKILGGQSFLDPMFSALKIDPVEGCQVLDGTMLSRDEVHVTQHIVICQVYDQMIASHVKLTLMELLPDDYEVTVATAVGTKNEKLETVPLYELDRVTTISNLTAVYVPPVEDEVILYQDFRTLRQIIATLRGPDGCPWDKKQTHQSLKKYLLEEAYEVLEAIDEENEDHLVEELGDLLLQVLLHAQIGEDDGWFQIEDVIRSISEKMIRRHPHVFGERQVEDAEDVVETWDEIKKAEKGEDQASTSILGKIPKGLPSLMLAFELQKKAAKVGFDWAEVEPMWAKLDEEMHEFKEEIQAGHSQEMAKEFGDVLFVLVNIGRFYNIYAEEALHRTNEKFKRRFQSIEQAITAKGDTLEESSLEEMDVLWNQAKESESQGE
  soluble on expression in E. coli: not soluble

## QSGHTKKINDKEMLDYKGRIPVGTLTLKFDQPVKDPILDFSGLGGYNIFSAHHEEASHEGIRNWEVRNGKIVVTGESASVVGAQINDQIRGSFNHTDLELETPGVKLVELAKNSNLKVDDRSISTVAANNDYVCNTPNDYQTLPEELENGPSYEQNDAFLSPVMKPAGCGSVLAQGEFSELKFTLFSSVEPMSSFAHDTHKTGLLYFAGGVNGGNANPVTPIPMLEGYSKPQEVSDTSNGDLFRMSIRLPEEPVKGSVSVGDFVWIDKDADGRQDDNEPGLAGVKLWLYGPDGGPVTDVHGKVVKSVTTGEDGKYSFKDLPVLTGSDSYTVKVVDVPAGYKPTLSGTGKVPAFKDSSTDLAKSTPGALSENGAQDLTLDFGFVKESATPSDPTVPGFK
  soluble on expression in E. coli: not soluble

## MAHHHHHHMSQTATAGPALPPPEEPLTYPITFTKQAEESPQSEPGVAAPAAPSGLHQISIFSALHFLLPVYELAGWLPKTTVQHSRKSGDKSSPVSATAGGSKSTSGTAADVSIDLDAIPHDDVRAALRLLPVFEKFFVEGSKIVAQHTDLYYFIESFTLPTPKGPKVITRSKVEGDYRAVHQPSHAPASLGAAGAMTKTTVTNSTAYFSLLPGHNQFLLYYEDCEKLRHFTYLQLDQLRFAWVAVKELLEESKVFNLSDGSLTGLAKRDLQKNNTASPFCLASSAQAATATERASSHDNGSNGGAVIGRGGGNARLHQGTSGNVITAPSKETTEEKKRIQQMSFLREELEHECQRRWPYTPVSKSCIFSLEEKVEAELPADALEQLGIVGAHNTRNSKNGNRRGPRYYLATVDLPLLNKKGGAARFKAPRWWNNRRDAESAAAEATLLALRSMKS
  soluble on expression in E. coli: not soluble
